Kd data for two molecules are collected here from patent publication US20250326791A1 (published 2025).

Bridges are numbered along the chain shown (N, C = ends). Where no end group is shown, it is not given here. [ ]: non-standard residue; d: D form.

Among the targets are µ opioid receptor (MOR); δ opioid receptor (DOR); κ opioid receptor (KOR).
Holding throughout (assay): protein binding radioassay

By Kd is commonly meant the constant that tells how readily two partners part at equilibrium. A low value points to a tighter complex. With YASPKCFRY[dA]GF[dL]LACT (disulfide 6-16) [DADLE-OL], the Kd with µ opioid receptor (MOR) is 3540 nM; with δ opioid receptor (DOR) it was 64 nM; with κ opioid receptor (KOR), above 10000 nM.
The matching figures for Y[dA]GF[dL]KCFRYPNGVLACT (disulfide 7-17, 18 residues) [DADLE-OL II]: 123 nM, 275 nM and 1080 nM.
